{"source": "patent US8975370B2", "about": "“Inhibitor proteins of a protease and use thereof” (Universite de Lausanne, priority 2003, dated 2015)", "test_system": "T1, Cc1cc(=O)oc2cc(NC(=O)[C@H](CCCNC(=N)N)NC(=O)[C@H](Cc3ccccc3)NC(=O)OCc3ccccc3)ccc12", "T1 construct": "substrate Z-FR-AMC", "assay": "Km of PK for its fluorogenic substrate (used for ka correction, eq 2)", "assay_type": "biochemical, human", "settings": "other: PK, substrate Z-FR-AMC, kinetics in 50 mM Tris pH 7.5, 150 mM NaCl, 0.05% Triton X-100, 0.01% BSA, 25° C.", "text": "hK2 and hK3 (PSA) were purified from human semen as previously described (Frenette G, Gervais Y, Tremblay R R, Dube J Y. 1998 “Contamination of purified prostate-specific antigen preparations by kallikrein hK2” J Urol 159, 1375-8), anti-hK2 and anti-PSA monoclonal antibodies were a gift from Professor R R Tremblay, Laval University, Canada. Human chymotrypsin (Chtr), urokinase plasminogen activator (uPA), human kallikrein hK1, human plasma kallikrein (PK), human neutrophil elastase (HNE) and commercial ACT (human plasma α1-antichymotrypsin) were purchased from Calbiochem. […]\nThe association rate constants for interactions of hK2, chymotrypsin, PK and HNE with different rACTs were determined under pseudo-first order conditions using the progress curve method (Morrison J F, Walsh C T. 1988 “The behavior and significance of slow-binding enzyme inhibitors” Adv. Enzymol. Relat. Areas Mol. Biol 61, 201-301). […] Each reaction was made in reaction buffer (50 mM Tris pH 7.5, 150 mM NaCl, 0.05% Triton X-100, 0.01% BSA) at 25° C. for 45 min and the rate of product formation was measured using a FLx800 fluorescence 96-well microplate reader (Biotek, USA). […]\nFor each inhibitor, a kobs was calculated, for four different concentrations of inhibitors, by non linear regression of the data using equation 1. […]", "data": [{"substance": "human plasma kallikrein (PK) (Homo sapiens)", "values": [{"measurement": "Km", "result": 170, "unit": "µM"}]}]}
